Molecular target: T1, hCD22.mmh (human, UniProt P20273 20-687)
T1 construct: Analyte of the Biacore assay; also called Recombinant CD22; human CD22
T1 sequence (looked up): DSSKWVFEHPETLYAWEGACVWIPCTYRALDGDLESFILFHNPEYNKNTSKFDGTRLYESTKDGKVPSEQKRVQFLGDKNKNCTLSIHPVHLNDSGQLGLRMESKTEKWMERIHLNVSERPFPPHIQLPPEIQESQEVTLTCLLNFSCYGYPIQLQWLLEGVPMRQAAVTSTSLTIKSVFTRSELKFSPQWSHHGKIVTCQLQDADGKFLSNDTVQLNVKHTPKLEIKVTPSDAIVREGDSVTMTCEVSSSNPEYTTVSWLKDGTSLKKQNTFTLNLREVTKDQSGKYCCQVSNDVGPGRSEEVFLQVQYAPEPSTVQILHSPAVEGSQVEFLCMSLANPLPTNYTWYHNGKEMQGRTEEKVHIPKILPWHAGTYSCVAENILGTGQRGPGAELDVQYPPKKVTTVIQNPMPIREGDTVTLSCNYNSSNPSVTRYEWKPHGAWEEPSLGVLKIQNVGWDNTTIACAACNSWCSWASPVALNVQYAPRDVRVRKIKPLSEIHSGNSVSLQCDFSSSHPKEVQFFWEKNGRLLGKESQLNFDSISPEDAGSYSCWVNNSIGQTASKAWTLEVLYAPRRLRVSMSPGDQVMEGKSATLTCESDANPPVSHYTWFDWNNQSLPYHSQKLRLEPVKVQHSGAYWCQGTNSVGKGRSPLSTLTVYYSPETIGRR
Test: SPR (Biacore), mAb captured from CHO supernatant on anti-human Fc, 25C pH 7.4

B1: mAb23 (antibody, V domains shown)
VH: EVQLLESGGGLVQPGGSLRLSCAASGFTFSSYAMTWVRQAPGKGLEWVSTISGSGVSTYSADSVKGRFTISRDNSKNTLYLQMNSLRAEDTAVYYCALHWELLDAFDIWGQGTMVTVSS
VL: EIVLTQSPGTLSLSPGERATLSCRASQSISYNYLAWYQQKPGQAPRLLIYGASSRASGISDRFSGSGSGTDFTLTISRLEPEDFVVYYCQQYGSSPLTFGGGTKVEVK
- Kd: 160 nM
- koff: 0.0117 s⁻¹
- kon: 73200 M⁻¹ s⁻¹
- t½: 1 min
